Reference: PMC10397247
One block for each binder: values may come before it.

Tests used:
4H3277-bA = biological target: T1, 4H3277-bA; experiment: two-hybrid library CCNG1;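 note: natural log of median RNA to DNA barcode read ratio; higher means stronger binding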
T1 chain: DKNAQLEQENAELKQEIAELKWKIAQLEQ

4H906-bA = biological target: T2, 4H906-bA; experiment: two-hybrid library CCNG1;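 note: natural log of median RNA to DNA barcode read ratio; higher means stronger binding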
T2 chain: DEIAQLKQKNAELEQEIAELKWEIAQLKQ

4H570-bA = biological target: T3, 4H570-bA; experiment: two-hybrid library CCNG1;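 note: natural log of median RNA to DNA barcode read ratio; higher means stronger binding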
T3 chain: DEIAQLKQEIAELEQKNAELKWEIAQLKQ

4H619-bN = biological target: T4, 4H619-bN; experiment: two-hybrid library CCNG1;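 note: natural log of median RNA to DNA barcode read ratio; higher means stronger binding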
T4 chain: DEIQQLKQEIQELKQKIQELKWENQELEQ

4H626-bA = biological target: T5, 4H626-bA; experiment: two-hybrid library CCNG1;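 note: natural log of median RNA to DNA barcode read ratio; higher means stronger binding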
T5 chain: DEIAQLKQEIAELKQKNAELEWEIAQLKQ

4H3613-bA = biological target: T6, 4H3613-bA; experiment: two-hybrid library CCNG1;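 note: natural log of median RNA to DNA barcode read ratio; higher means stronger binding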
T6 chain: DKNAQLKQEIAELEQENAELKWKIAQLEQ

4H1899-bA = biological target: T7, 4H1899-bA; experiment: two-hybrid library CCNG1
T7 chain: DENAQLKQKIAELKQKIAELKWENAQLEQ

4H1449-bA = biological target: T8, 4H1449-bA; experiment: two-hybrid library CCNG1
T8 chain: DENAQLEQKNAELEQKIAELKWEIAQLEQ

4H850-bA = biological target: T9, 4H850-bA; experiment: two-hybrid library CCNG1
T9 chain: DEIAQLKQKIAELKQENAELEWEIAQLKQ

4H3497-bA = biological target: T10, 4H3497-bA; experiment: two-hybrid library CCNG1
T10 chain: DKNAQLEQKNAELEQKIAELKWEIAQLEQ

4H1710-bA = biological target: T11, 4H1710-bA; experiment: two-hybrid library CCNG1
T11 chain: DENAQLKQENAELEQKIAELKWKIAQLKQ

4H2691-bA = biological target: T12, 4H2691-bA; experiment: two-hybrid library CCNG1
T12 chain: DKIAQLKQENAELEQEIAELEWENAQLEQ

4H3162-bA = biological target: T13, 4H3162-bA; experiment: two-hybrid library CCNG1
T13 chain: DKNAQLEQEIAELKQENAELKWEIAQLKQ

4H3817-bA = biological target: T14, 4H3817-bA; experiment: two-hybrid library CCNG1
T14 chain: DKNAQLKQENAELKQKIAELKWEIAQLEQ

4H1544-bA = biological target: T15, 4H1544-bA; experiment: two-hybrid library CCNG1
T15 chain: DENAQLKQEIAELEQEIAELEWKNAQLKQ

4H3462-bA = biological target: T16, 4H3462-bA; experiment: two-hybrid library CCNG1
T16 chain: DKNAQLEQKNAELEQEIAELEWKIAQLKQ

4H3926-bA = biological target: T17, 4H3926-bA; experiment: two-hybrid library CCNG1
T17 chain: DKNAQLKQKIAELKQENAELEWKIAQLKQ

4H3298-bA = biological target: T18, 4H3298-bA; experiment: two-hybrid library CCNG1
T18 chain: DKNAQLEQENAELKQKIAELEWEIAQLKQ

4H3858-bA = biological target: T19, 4H3858-bA; experiment: two-hybrid library CCNG1
T19 chain: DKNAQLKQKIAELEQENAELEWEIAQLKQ

4H591-bA = biological target: T20, 4H591-bA; experiment: two-hybrid library CCNG1
T20 chain: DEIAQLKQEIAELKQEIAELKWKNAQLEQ

4H1985-bA = biological target: T21, 4H1985-bA; experiment: two-hybrid library CCNG1
T21 chain: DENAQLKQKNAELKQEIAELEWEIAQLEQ

4H3974-bA = biological target: T22, 4H3974-bA; experiment: two-hybrid library CCNG1
T22 chain: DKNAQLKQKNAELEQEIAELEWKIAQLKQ

4H3175-bA = biological target: T23, 4H3175-bA; experiment: two-hybrid library CCNG1
T23 chain: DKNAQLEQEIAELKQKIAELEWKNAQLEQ

4H3628-bA = biological target: T24, 4H3628-bA; experiment: two-hybrid library CCNG1
T24 chain: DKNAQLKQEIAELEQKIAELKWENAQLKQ

4H1373-bA = biological target: T25, 4H1373-bA; experiment: two-hybrid library CCNG1
T25 chain: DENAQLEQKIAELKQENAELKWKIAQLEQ

APC5383-AA = biological target: T26, APC5383-AA; experiment: two-hybrid library CCmax; conditions: mean of both orientations
T26 chain: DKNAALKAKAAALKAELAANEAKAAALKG

APC3645-AA = biological target: T27, APC3645-AA; experiment: two-hybrid library CCmax; conditions: mean of both orientations
T27 chain: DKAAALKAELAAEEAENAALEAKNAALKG

APC4011-AA = biological target: T28, APC4011-AA; experiment: two-hybrid library CCmax; conditions: mean of both orientations
T28 chain: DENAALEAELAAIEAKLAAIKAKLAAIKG

APC9319-AA = biological target: T29, APC9319-AA; experiment: two-hybrid library CCmax; conditions: mean of both orientations
T29 chain: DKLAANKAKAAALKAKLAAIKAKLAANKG

APC232-AA = biological target: T30, APC232-AA; experiment: two-hybrid library CCmax; conditions: mean of both orientations
T30 chain: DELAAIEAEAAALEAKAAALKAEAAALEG

APC1015-AA = biological target: T31, APC1015-AA; experiment: two-hybrid library CCmax; conditions: mean of both orientations
T31 chain: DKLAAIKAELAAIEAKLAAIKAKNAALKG

APC9096-AA = biological target: T32, APC9096-AA; experiment: two-hybrid library CCmax; conditions: mean of both orientations
T32 chain: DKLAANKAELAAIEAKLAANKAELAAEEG

APC6108-AA = biological target: T33, APC6108-AA; experiment: two-hybrid library CCmax; conditions: mean of both orientations
T33 chain: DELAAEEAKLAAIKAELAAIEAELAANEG

APC2405-AA = biological target: T34, APC2405-AA; experiment: two-hybrid library CCmax; conditions: mean of both orientations
T34 chain: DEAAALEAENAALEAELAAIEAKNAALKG

APC4436-AA = biological target: T35, APC4436-AA; experiment: two-hybrid library CCmax; conditions: mean of both orientations
T35 chain: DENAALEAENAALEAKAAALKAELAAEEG

APC4264-AA = biological target: T36, APC4264-AA; experiment: two-hybrid library CCmax; conditions: mean of both orientations
T36 chain: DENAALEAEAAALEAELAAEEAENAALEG

4H3330-AA = biological target: T37, 4H3330-AA; experiment: two-hybrid library CCmax; conditions: mean of both orientations
T37 chain: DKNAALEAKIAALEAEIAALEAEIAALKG

4H716-AA = biological target: T38, 4H716-AA; experiment: two-hybrid library CCmax; conditions: mean of both orientations
T38 chain: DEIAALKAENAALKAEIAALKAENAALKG

APC8910-AA = biological target: T39, APC8910-AA; experiment: two-hybrid library CCmax; conditions: mean of both orientations
T39 chain: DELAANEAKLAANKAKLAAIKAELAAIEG

APC7099-AA = biological target: T40, APC7099-AA; experiment: two-hybrid library CCmax; conditions: mean of both orientations
T40 chain: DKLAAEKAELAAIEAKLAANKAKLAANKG

4H2458-AA = biological target: T41, 4H2458-AA; experiment: two-hybrid library CCmax; conditions: mean of both orientations
T41 chain: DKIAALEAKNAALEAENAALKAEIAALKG

4H2447-AA = biological target: T42, 4H2447-AA; experiment: two-hybrid library CCmax
T42 chain: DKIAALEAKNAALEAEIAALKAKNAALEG

APC2237-AA = biological target: T43, APC2237-AA; experiment: two-hybrid library CCmax; conditions: mean of both orientations
T43 chain: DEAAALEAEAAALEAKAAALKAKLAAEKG

4H807-AA = biological target: T44, 4H807-AA; experiment: two-hybrid library CCmax; conditions: mean of both orientations
T44 chain: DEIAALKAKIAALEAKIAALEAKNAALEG

APC1434-AA = biological target: T45, APC1434-AA; experiment: two-hybrid library CCmax; conditions: mean of both orientations
T45 chain: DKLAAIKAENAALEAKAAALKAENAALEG

APC8191-AA = biological target: T46, APC8191-AA; experiment: two-hybrid library CCmax; conditions: mean of both orientations
T46 chain: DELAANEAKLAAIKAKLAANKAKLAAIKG

4H733-AA = biological target: T47, 4H733-AA; experiment: two-hybrid library CCmax; conditions: mean of both orientations
T47 chain: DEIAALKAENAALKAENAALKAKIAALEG

interaction score (4H3277-bA): -0.594
interaction score (4H906-bA): -1.26
interaction score (4H570-bA): -0.799
interaction score (4H619-bN): -0.473
interaction score (4H626-bA): -1.61
interaction score (4H3613-bA): 1.71
interaction score (4H1899-bA): -1.03
interaction score (4H1449-bA): -1.22
interaction score (4H850-bA): -0.104
interaction score (4H3497-bA): -1.17
interaction score (4H1710-bA): -0.946
interaction score (4H2691-bA): 0.119
interaction score (4H3162-bA): -0.314
interaction score (4H3817-bA): -0.693
interaction score (4H1544-bA): -0.914
interaction score (4H3462-bA): -0.757
interaction score (4H3926-bA): 2.27
interaction score (4H3298-bA): -0.776
interaction score (4H3858-bA): 1.36
interaction score (4H591-bA): -0.592
interaction score (4H1985-bA): -0.533
interaction score (4H3974-bA): -0.681
interaction score (4H3175-bA): -0.89
interaction score (4H3628-bA): -0.805
interaction score (4H1373-bA): 0.464
Binder: DENAQLEQKIAELKQENAELKWKIAQLEQ [4H1373-bA]

interaction score (APC5383-AA): -1.8
interaction score (APC3645-AA): -1.7
interaction score (APC4011-AA): -0.716
interaction score (APC9319-AA): -1.75
interaction score (APC232-AA): -1.82
interaction score (APC1015-AA): -2.05
interaction score (APC9096-AA): -1.78
interaction score (APC6108-AA): -1.28
interaction score (APC2405-AA): -1.12
interaction score (APC4436-AA): -1.79
interaction score (APC4264-AA): -1.6
interaction score (4H3330-AA): -0.798
interaction score (4H716-AA): -1.36
interaction score (APC8910-AA): -1.68
interaction score (APC7099-AA): -1.5
interaction score (4H2458-AA): -1.42
interaction score (4H2447-AA): 1.72
interaction score (APC2237-AA): -1.38
interaction score (4H807-AA): -1.69
interaction score (APC1434-AA): -1.56
interaction score (APC8191-AA): -1.38
interaction score (4H733-AA): -1.83
Binder: DKIAALEAKNAALEAEIAALKAKNAALEG [4H2447-AA]
